Here are results for 2 molecules from paper PMC3805332 (ACS Chemical Biology, 2013).

The term stoichiometry N denotes a count of units in the complex or per binding partner.

“And” between values parts separate entries of the source, which are not always exact repeats. Equal entries are not always repeated.

Series [1] concerns the molecule itself. Kind of series: AUC.
For series [2], the target named is M. tuberculosis maltokinase Pep2 (M. tuberculosis H37Rv, UniProt O07177 1-455). Kind of series: SEC. The settings on record: both partners purified.
The target in series [3] is T1, M. smegmatis TreS (recombinant) (M. smegmatis, UniProt A0R6E0 1-593).
T1 sequence (looked up): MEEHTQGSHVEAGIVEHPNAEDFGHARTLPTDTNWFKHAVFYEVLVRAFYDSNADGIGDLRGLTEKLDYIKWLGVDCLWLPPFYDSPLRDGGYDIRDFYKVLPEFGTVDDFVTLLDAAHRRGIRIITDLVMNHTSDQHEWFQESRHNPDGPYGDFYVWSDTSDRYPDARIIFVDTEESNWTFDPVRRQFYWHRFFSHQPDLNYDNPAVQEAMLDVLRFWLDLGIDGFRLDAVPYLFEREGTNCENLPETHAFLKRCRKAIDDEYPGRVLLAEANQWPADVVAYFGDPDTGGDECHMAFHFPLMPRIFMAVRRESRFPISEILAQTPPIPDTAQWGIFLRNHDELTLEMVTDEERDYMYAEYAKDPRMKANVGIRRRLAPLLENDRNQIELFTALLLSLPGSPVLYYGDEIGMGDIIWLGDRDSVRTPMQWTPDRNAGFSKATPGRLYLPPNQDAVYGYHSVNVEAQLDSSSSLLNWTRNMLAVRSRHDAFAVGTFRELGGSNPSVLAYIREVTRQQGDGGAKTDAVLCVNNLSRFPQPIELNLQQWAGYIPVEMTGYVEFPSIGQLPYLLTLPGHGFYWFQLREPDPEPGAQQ
The series can be described thus: SEC; M. smegmatis Pep2-K145A with M. smegmatis TreS (Figure S6B); conditions not given. The settings on record: both partners purified. (In general: In gel filtration, larger molecules generally elute earlier.)

B1: M. tuberculosis trehalose synthase TreS (enzyme)
chain: MNEAEHSVEHPPVQGSHVEGGVVEHPDAKDFGSAAALPADPTWFKHAVFYEVLVRAFFDASADGSGDLRGLIDRLDYLQWLGIDCIWLPPFYDSPLRDGGYDIRDFYKVLPEFGTVDDFVALVDAAHRRGIRIITDLVMNHTSESHPWFQESRRDPDGPYGDYYVWSDTSERYTDARIIFVDTEESNWSFDPVRRQFYWHRFFSHQPDLNYDNPAVQEAMIDVIRFWLGLGIDGFRLDAVPYLFEREGTNCENLPETHAFLKRVRKVVDDEFPGRVLLAEANQWPGDVVEYFGDPNTGGDECHMAFHFPLMPRIFMAVRRESRFPISEIIAQTPPIPDMAQWGIFLRNHDELTLEMVTDEERDYMYAEYAKDPRMKANVGIRRRLAPLLDNDRNQIELFTALLLSLPGSPVLYYGDEIGMGDVIWLGDRDGVRIPMQWTPDRNAGFSTANPGRLYLPPSQDPVYGYQAVNVEAQRDTSTSLLNFTRTMLAVRRRHPAFAVGAFQELGGSNPSVLAYVRQVAGDDGDTVLCVNNLSRFPQPIELDLQQWTNYTPVELTGHVEFPRIGQVPYLLTLPGHGFYWFQLTTHEVGAPPTCGGERRL
On to B1, for which the “stoichiometry N” value in series [1] is 4 and 8. For the same molecule, the binding result in series [2] is on record as “binds”.

B2: M. smegmatis Pep2-K145A (enzyme)
chain: not shown
As for B2, in series [3], the binding result is given as “binds”.
